Measured values reported in publication PMC5585873.

Assays:
[1] = test system: CCCCCCOS(=O)(=O)O; assay: purified protein; conditions: 10 mM tris-HCl, pH 7.4, 25 °C, 0.16 μM enzyme
[2] = substrate: CCCCCCOS(=O)(=O)O; assay: LC-MS of substrate depletion, hyperbolic fit; format: biochemical, Saccharomyces cerevisiae; conditions: 10 mM tris-HCl, pH 7.4, 25 °C, 1.0 μM enzyme

Molecule | Km [1] | kcat [1] | Km [2] | kcat [2]
SdsA1 (Pseudomonas aeruginosa PAO1) | 110 ± 17 µM | 1.07 ± 0.45 s⁻¹ |  | 
Bds1 (Saccharomyces cerevisiae S288C) (protein) MIGAFKRNRGSSQSFAKECQPSTLKANLEVAKELPFSDRRDFEDATQGYIGSLSDEQIIGPDGGVVWCMKSYGFLEPETPANTVNPSLWRQAQLNAIHGLFKITDNVYQVRGLDISNMTIIEGNTSLIIIDTLFTTETAQESLKLYYRHRPQKPVRTVIYTHSHSDHYGGVKGIVKEADVKSGEVQIIAPVGFMESVVAENILAGNAMHRRSQYQFGMLLSPSVKGHVDCGIGKAASHGTVTLIAPTIIIEEPVEERTIDGVDFVFQLAPGSEAPSEMLIYMPQQRVLNMAEDVTHHMHNLYALRGVEVRDGNQWAKYIDAARVAFGSKTDVLIAQHHWPTTGQMRINELLKKQRDMYKFIHDQTLRLLNQGYTSRDIAETLRMPSSLEQEWSTRGYYGTLSHNVKAVYQKYLGWYDANPANLNPLPPVAYAKKAVEYMGGADAVLARAYKDFQKGEFRWVASVVNQLVFADPNNHQARELCADALEQLGYQAEASTWRNAYLVGAMELRQGVPKRRSTGKRNNIAVLNNEMFFDFLAVRLNATKAEGKIIVSNWCFINSNERFVITLENCALTYIQGWQTDADATITLKRTTFEALLANEITMVDFLRSKEVEIEGNRLRIEELLKLFDDFDQSFPVVEPMGGST |  |  | 300 ± 115 µM | 0.0067 ± 0.0017 s⁻¹
